The text below walks through data of US20130177579A1 (BIOALLIANCE C V, published 2013).

Assay [1] has as its target human transferrin receptor expressed by Jurkat cells (human) (UniProt P02786). The assay is described as follows: FACS, Jurkat cells, 1 ug. (In flow cytometry, cells or beads pass a laser one at a time.)
For assay [2], the target named is human CD41a on platelets (human) (UniProt P08514). Briefly: FACS, platelets, donor D005, positive control.
Assay [3] shares this target. The assay is described as follows: FACS, platelets, donor D102, positive control.
For assay [4] the target is unchanged. The assay is described as follows: FACS, platelets, donor D016, positive control.
For assay [5] the target is unchanged. Briefly: FACS, platelets, donor D014, positive control.
Assay [6] concerns the target human transferrin receptor expressed by nonhematopoietic cancer cells (human) (UniProt P02786). The assay is described as follows: FACS, MDA-MB-453 cells, 5 ug.
Assay [7] shares this target. Briefly: FACS, H358 cells, 5 ug.
Assay [8] has as its target human transferrin receptor expressed by normal human cells (RBC, PMN, lymphocytes, monocytes, platelets, HUVEC) (human) (UniProt P02786). The assay is described as follows: FACS, monocytes, donor D102.
Assay [9] shares this target. The assay is described as follows: FACS, RBC, donor D014.
Assay [10] concerns the target human transferrin receptor expressed by nonhematopoietic cancer cells (human) (UniProt P02786). The assay is described as follows: FACS, SK-OV-3 cells, 5 ug.
Assay [11] deals with human transferrin receptor expressed by normal human cells (RBC, PMN, lymphocytes, monocytes, platelets, HUVEC) (human) (UniProt P02786). The assay is described as follows: FACS, PMN, donor D005.
Chain of human transferrin receptor expressed by normal human cells (RBC, PMN, lymphocytes, monocytes, platelets, HUVEC) (human) (P02786 whole entry G142S): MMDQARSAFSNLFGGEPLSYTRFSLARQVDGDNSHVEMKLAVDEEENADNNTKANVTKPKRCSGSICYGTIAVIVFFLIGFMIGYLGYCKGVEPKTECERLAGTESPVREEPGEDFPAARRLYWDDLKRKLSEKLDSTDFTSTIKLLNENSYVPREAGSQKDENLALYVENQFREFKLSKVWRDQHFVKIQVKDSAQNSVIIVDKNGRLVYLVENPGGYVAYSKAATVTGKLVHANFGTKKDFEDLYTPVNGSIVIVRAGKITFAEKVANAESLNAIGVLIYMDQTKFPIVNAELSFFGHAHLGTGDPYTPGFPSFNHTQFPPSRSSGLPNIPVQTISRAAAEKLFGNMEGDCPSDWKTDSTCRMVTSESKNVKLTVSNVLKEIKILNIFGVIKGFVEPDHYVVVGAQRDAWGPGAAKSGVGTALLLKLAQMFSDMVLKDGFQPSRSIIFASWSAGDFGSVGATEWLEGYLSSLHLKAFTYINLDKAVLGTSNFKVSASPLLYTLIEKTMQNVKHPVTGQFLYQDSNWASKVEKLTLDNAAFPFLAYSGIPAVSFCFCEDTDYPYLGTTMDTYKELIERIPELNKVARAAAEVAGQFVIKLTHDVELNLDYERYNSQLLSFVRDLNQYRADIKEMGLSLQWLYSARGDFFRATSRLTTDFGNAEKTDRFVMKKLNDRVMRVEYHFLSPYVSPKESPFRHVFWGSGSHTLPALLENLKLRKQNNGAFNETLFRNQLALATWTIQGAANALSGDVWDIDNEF
Assay [12] has the same target. The assay is described as follows: FACS, PMN, donor D016.
For assay [13] the target is unchanged. The assay is described as follows: FACS, RBC, donor D005.
Assay [14] has the same target. Briefly: FACS, RBC, donor D102.
In assay [15] the target is human transferrin receptor expressed by nonhematopoietic cancer cells (human) (UniProt P02786). The assay is described as follows: FACS, Panc-1 cells, 5 ug.
Chain of human transferrin receptor expressed by nonhematopoietic cancer cells (human) (P02786 whole entry G142S): as above
Assay [16] has as its target human transferrin receptor expressed by normal human cells (RBC, PMN, lymphocytes, monocytes, platelets, HUVEC) (human) (UniProt P02786). Briefly: FACS, platelets, donor D014.
Assay [17] addresses human transferrin receptor expressed by nonhematopoietic cancer cells (human) (UniProt P02786). The assay is described as follows: FACS, KLE cells, 5 ug.
Assay [18] shares this target. Briefly: FACS, A549 cells, 5 ug.
Assay [19] shares this target. The assay is described as follows: FACS, H520 cells, 5 ug.
The target is the same in assay [20]. The assay is described as follows: FACS, HEC-1-A cells, 5 ug.
Assay [21] has the same target. Briefly: FACS, PC3 cells, 5 ug.
Assay [22] deals with human transferrin receptor expressed by normal human cells (RBC, PMN, lymphocytes, monocytes, platelets, HUVEC) (human) (UniProt P02786). The assay is described as follows: FACS, PMN, donor D102.
For assay [23] the target is unchanged. The assay is described as follows: FACS, HUVEC, 5 ug/ml.
In assay [24] the target is human transferrin receptor expressed by nonhematopoietic cancer cells (human) (UniProt P02786). Briefly: FACS, Hep 3B2.1-7 cells, 5 ug.
The target of assay [25] is human transferrin receptor expressed by normal human cells (RBC, PMN, lymphocytes, monocytes, platelets, HUVEC) (human) (UniProt P02786). Briefly: FACS, PMN, donor D014.
For assay [26] the target is unchanged. The assay is described as follows: FACS, monocytes, donor D016.
Assay [27] has the same target. The assay is described as follows: FACS, platelets, donor D102.
The target of assay [28] is human transferrin receptor expressed by nonhematopoietic cancer cells (human) (UniProt P02786). Briefly: FACS, OMC-3 cells, 5 ug.
The target of assay [29] is human transferrin receptor expressed by normal human cells (RBC, PMN, lymphocytes, monocytes, platelets, HUVEC) (human) (UniProt P02786). The assay is described as follows: FACS, lymphocytes, donor D014.
Assay [30] deals with human transferrin receptor expressed by nonhematopoietic cancer cells (human) (UniProt P02786). Briefly: FACS, DU145 cells, 5 ug.
Assay [31] has as its target human transferrin receptor expressed by normal human cells (RBC, PMN, lymphocytes, monocytes, platelets, HUVEC) (human) (UniProt P02786). Briefly: FACS, lymphocytes, donor D102.
Assay [32] deals with human transferrin receptor expressed by nonhematopoietic cancer cells (human) (UniProt P02786). Briefly: FACS, COLO205 cells, 5 ug.
Assay [33] has the same target. Briefly: FACS, Kato III cells, 5 ug.
Assay [34] addresses human transferrin receptor expressed by normal human cells (RBC, PMN, lymphocytes, monocytes, platelets, HUVEC) (human) (UniProt P02786). Briefly: FACS, monocytes, donor D005.
For assay [35] the target is unchanged. The assay is described as follows: FACS, RBC, donor D016.
Assay [36] has the same target. Briefly: FACS, lymphocytes, donor D016.
Assay [37] addresses human transferrin receptor expressed by nonhematopoietic cancer cells (human) (UniProt P02786). Briefly: FACS, 22Rv1 cells, 5 ug.
The target in assay [38] is human transferrin receptor expressed by normal human cells (RBC, PMN, lymphocytes, monocytes, platelets, HUVEC) (human) (UniProt P02786). The assay is described as follows: FACS, platelets, donor D016.
Assay [39] deals with human transferrin receptor expressed by nonhematopoietic cancer cells (human) (UniProt P02786). Briefly: FACS, DLD-1 cells, 5 ug.
The target of assay [40] is human transferrin receptor expressed by normal human cells (RBC, PMN, lymphocytes, monocytes, platelets, HUVEC) (human) (UniProt P02786). The assay is described as follows: FACS, monocytes, donor D014.
In assay [41] the target is human transferrin receptor expressed by nonhematopoietic cancer cells (human) (UniProt P02786). The assay is described as follows: FACS, Hep G2 cells, 5 ug.
Assay [42] has as its target human transferrin receptor expressed by normal human cells (RBC, PMN, lymphocytes, monocytes, platelets, HUVEC) (human) (UniProt P02786). The assay is described as follows: FACS, platelets, donor D005.
The target of assay [43] is human transferrin receptor expressed by nonhematopoietic cancer cells (human) (UniProt P02786). Briefly: FACS, Panc02.03B cells, 5 ug.
Assay [44] shares this target. Briefly: FACS, SU.86.86 cells, 5 ug.
Assay [45] has the same target. The assay is described as follows: FACS, WiDr cells, 5 ug.
Assay [46] has the same target. Briefly: FACS, NCI-N87 cells, 5 ug.
Assay [47] shares this target. Briefly: FACS, SNU-16 cells, 5 ug.
The target of assay [48] is human transferrin receptor expressed by normal human cells (RBC, PMN, lymphocytes, monocytes, platelets, HUVEC) (human) (UniProt P02786). The assay is described as follows: FACS, lymphocytes, donor D005.
In assay [49] the target is human transferrin receptor expressed by nonhematopoietic cancer cells (human) (UniProt P02786). The assay is described as follows: FACS, H727 cells, 5 ug.

Chain of human CD41a on platelets (human) (P08514 32-1039): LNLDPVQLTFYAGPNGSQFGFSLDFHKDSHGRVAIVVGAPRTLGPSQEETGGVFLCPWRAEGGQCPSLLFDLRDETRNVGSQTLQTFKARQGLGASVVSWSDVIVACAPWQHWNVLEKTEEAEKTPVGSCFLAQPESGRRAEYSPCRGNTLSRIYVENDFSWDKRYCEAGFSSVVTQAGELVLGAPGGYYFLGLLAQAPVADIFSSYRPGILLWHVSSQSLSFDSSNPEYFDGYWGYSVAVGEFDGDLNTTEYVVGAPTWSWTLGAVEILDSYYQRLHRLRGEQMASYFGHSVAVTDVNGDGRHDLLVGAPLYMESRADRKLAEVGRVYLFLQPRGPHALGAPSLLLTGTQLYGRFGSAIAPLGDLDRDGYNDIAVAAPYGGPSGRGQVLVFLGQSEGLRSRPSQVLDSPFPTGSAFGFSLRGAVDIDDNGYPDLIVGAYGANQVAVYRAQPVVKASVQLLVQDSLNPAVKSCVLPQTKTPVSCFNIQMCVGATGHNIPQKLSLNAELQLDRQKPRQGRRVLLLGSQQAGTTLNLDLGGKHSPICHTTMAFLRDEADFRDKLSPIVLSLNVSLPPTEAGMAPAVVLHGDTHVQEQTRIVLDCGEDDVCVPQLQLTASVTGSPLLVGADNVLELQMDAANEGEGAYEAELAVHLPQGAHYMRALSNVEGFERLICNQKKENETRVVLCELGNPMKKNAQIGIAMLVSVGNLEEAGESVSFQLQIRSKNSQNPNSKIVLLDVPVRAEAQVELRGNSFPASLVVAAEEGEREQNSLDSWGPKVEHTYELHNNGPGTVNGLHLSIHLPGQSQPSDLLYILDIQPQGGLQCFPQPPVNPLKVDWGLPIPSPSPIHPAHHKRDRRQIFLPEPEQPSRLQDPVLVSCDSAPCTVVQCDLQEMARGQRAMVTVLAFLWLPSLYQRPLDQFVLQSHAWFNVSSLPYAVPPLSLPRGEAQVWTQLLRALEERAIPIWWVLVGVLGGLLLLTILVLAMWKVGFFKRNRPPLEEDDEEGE
Chain of human transferrin receptor expressed by Jurkat cells (human) (P02786 whole entry G142S): as the sequence (P02786 whole entry G142S) above

In turn, “anti-human transferrin receptor antibody MEM189 (Abcam Cat. No. ab1086)” gave a % of gated cells in assay [1] of 100%.

As to “PE-conjugated anti-human CD41a (Southern Biotech Cat. No. 9391-09) (antibody)”, the % positive cell binding turned out to be 79% in [2], 78% in [3], 95% in assay [4] and 97% in assay [5].

Turning to “isotype control mouse IgM, kappa (BD Pharmingen Cat. No. 557275) (antibody)”, the MFI was determined as 4 MFI in [6]; 4 MFI in assay [7]; 5 MFI in [10]; 6 MFI in assay [15]; 10 MFI in [17]; 8 MFI in [18]. In addition, the MFI in assay [19] turned out to be 5 MFI; in assay [20], 13 MFI; in [21], 3 MFI; in assay [24], 5 MFI; in [28], 16 MFI; in assay [30], 4 MFI. Moreover, the MFI was determined as 3 MFI in [32]; 7 MFI in assay [33]; 7 MFI in assay [37]; 5 MFI in assay [39]; 4 MFI in [41]; 5 MFI in [43]. The MFI in assay [44] was 6 MFI; in [45] it was 5 MFI; in [46], 33 MFI; in [47], 5 MFI; in [49], 9 MFI. Moreover, the % positive cell binding was 2% in assay [8]; less than 1% in assay [9]; less than 1% in [11]; less than 1% in assay [12]; less than 1% in [13]; less than 1% in assay [14]. The % positive cell binding was less than 1% in [16]; less than 1% in assay [22]; 1% in assay [23]; less than 1% in assay [25]; 1% in [26]; less than 1% in assay [27]. Also, the % positive cell binding is 1% in [29]; 3% in [31]; 3% in assay [34]; less than 1% in [35]; 1% in assay [36]; less than 1% in [38]. Besides, the % positive cell binding in assay [40] was less than 1%; in assay [42], less than 1%; in [48], 4%.
